Test results taken from the nanobody polyreactivity screen of Harvey et al. (2022).

Experiment: yeast display, Sf9 membrane polyspecificity reagent, FACS + sequencing; frameworks hold sequencing errors
Method in brief: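 Using colony PCR, genes from sorted yeast display clones were amplified, then sequenced on MiSeq at 2 × 250 and filtered by CDR length. The clones had been stained with 10% biotinylated, detergent-solubilized Sf9 membrane reagent for 1 hour at 4 °C and sorted by FACS into low and high (top ~1%) gates on anti-HA and streptavidin fluorescence. Polyreactivity labels come from the gate of origin.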

Row | Sequence | polyreactivity (PSR sort gate)
1 | QVQLVESGGGLVQAGGSLRLSCAASGFAFSYYAMGWYRPAPGKEREFVASIDWSGGSTYYADSVKGRFTISRDNAKNTVYLQMTSLKPEDTAVYYCAAELDYFPGYDYWGQGTQVTVSS | low polyreactivity
2 | QVQLVESGGGLVQAGGSLRLSCAASGFICRGNAMGLYRQAPGKERELVASISRTGDTTYYADSVKGRFTISRDNAKNTVYLQMNSLTPEDTAVYYCARRSRVGYPLDSWGQATQVTVSS | high polyreactivity
3 | QVQLVESGGGLVQAGGSLRLSCAASGFIFADYMGWYRQAPGKERELDASISSTGSSTYADSVKGRFTISRDNAKNTVYLQMNSLKPEDTAVYYCAATGVWYSWYEYASEYDYWGQGTQVTVSS | high polyreactivity
4 | QVQLVESGGGLVQAGGSLRLSCAASGFIFAEYAMGWYRQATGKERELDAGITSGGSTSYADSVKGRFTISRDNAKNTVYLQMTSLKPDATAVYYCAATWYYHYNDWKHWYEYGYWGLGTQVTVSS | low polyreactivity
5 | QVQLVESGGGLVQAGGSLRLSCAASGFIFAGYAMGWYRQAPGKERELVAAISRRGGRTNYADSVKGRFTISRDNAKNTVYLQMNSLKPEDTAVFYCAAVQASVYYGLGRFDYWGQGTQVTVSS | high polyreactivity
6 | QVQLVESGGGLVQAGGSLRLSCAASGFIFAINAMGWYRQAPGKEREFVAAISSDGASTYYADSVKGRFTISRDNAKNTVYLQMNSLKPEDTAVYYCNAVPYEWTYPYEYYYWGQGTQVTVSS | low polyreactivity
7 | QVQLVESGGGLVQAGGSLRLSCAASGFIFAIYAMGWYRQAPGKERELVAAISSSGGSTYYADSVKGRFTISRDNAKNTVYLQMNSLKPEDTAVYYCNADWSLYWLDYWGQGTQVTVSS | high polyreactivity
8 | QVQLVESGGGLVQAGGSLRLSCAASGFIFANAIGWYRQAPGKEMELVAAITWSGDSTYYADSVKGRFTISRDNAKNTVYLQMNSLKPEDTAVYYCAAVVTNAYRYDYWGQGTQVTVSS | low polyreactivity
9 | QVQLVESGGGLVQAGGSLRLSCAASGFIFAPNVMGWYRQAPGKERELVAAINISGGSTSYADSVKGRFTISRDNAKNTVYLQMNSLKPEDTAVYYCAAEIPAYAYSYSYDYWGQGTQVTVSS | low polyreactivity
10 | QVQLVESGGGLVQAGGSLRLSCAASGFIFARYAMGWYRQAPGKERELVAAISSSGGITYYADSVKGRFTISRDNAKNTVYFQMNSLKPEDTAVYYCAAPLGGGARWGRWWLYDSWGQGTQVTVSS | low polyreactivity
11 | QVQLVESGGGLVQAGGSLRLSCAASGFIFARYAMGWYRQAPGKERELVAAISWSGARTYYADSVKGRFTISRDNAKNTVYLQMNSLKPEDTAVYYCNADYRKVTGDSYDYWGQGTQVTVSS | high polyreactivity
12 | QVQLVESGGGLVQAGGSLRLSCAASGFIFASNAMGWYRQEPGKERELVASITIGDSTYYADSVKGRFTISRDNAKNTVYLQMNSLKPEDTAVYYCAAVKTVDVGYDYWGQGTQVTVSS | low polyreactivity
13 | QVQLVESGGGLVQAGGSLRLSCAASGFIFASYARGWYRQAPGKERELVAAISSSGGSTYADSVKGRFTISRDNAKNTVYLQMNSLKPEDTAVYYCAAQGYGDNRNKYYYWGQGTQVTISS | high polyreactivity
14 | QVQLVESGGGLVQAGGSLRLSCAASGFIFASYTMGWYRQAPGNEREWVAAISRSGGRTYYADSVKGRFTISRDNAKKTVYLQMNSLKPEDTAVYYCATLETTGVNYWGQGTQVTVSS | high polyreactivity
15 | QVQLVESGGGLVQAGGSLRLSCAASGFIFATYTMGWYRQAPGKERELVAAITWRGGSTYYADSVKGRFTISRDNAKNTVYLQMNSLKPEDTAVYYCAAPDVYSYRYVEDDYWGQGTQVTVSS | low polyreactivity
16 | QVQLVESGGGLVQAGGSLRLSCAASGFIFATYTMGWYRQAPGKERKLVAAITWRGGSTYYADSVKGRFTISRDNAKNSVYLQMNSLKPEDTAVYYCAAQDVYSYRYVEDDYWGQGTQVTVSS | low polyreactivity
17 | QVQLVESGGGLVQAGGSLRLSCAASGFIFAWYAMGWYRQAPGKERELVADITSGGDTSYADSVKGRFTISRDNAKNTVYLQMNSLKPEDTAVYYCARDVYIWYGYGYFPEYEYWGQGTQVTVSS | low polyreactivity
18 | QVQLVESGGGLVQAGGSLRLSCAASGFIFAYYAMGLYRQAPGKERELVAAITSDGSTYYADSVKGRFTISRDNAKNTVYLQMNSLKPEDTAVYYCNTYWVLRPGYNYWGQGTQVTVSS | high polyreactivity
19 | QVQLVESGGGLVQAGGSLRLSCAASGFIFAYYAQGWYRQAPGKERELVAAITSRGGSTYYADSVKGRFTSSRDNAKNTVYVQMNSLKPEDTAVYYCAGRGYQRQYYYWGQGTQVTVSS | high polyreactivity
20 | QVQLVESGGGLVQAGGSLRLSCAASGFIFCPNDMGWYRQAPGKERELVADISGTGGGTYADSVKGRFTISRDNAKNTVYLQMNSLKPEDTAVYYCAALYGLYVSPYWYTGYYWGQGTQVTVSS | low polyreactivity
21 | QVQLVESGGGLVQAGGSLRLSCAASGFIFDAYALGWYRQAPGKERELVAAITRGNTYYADSVKGRFTISRDNAKNTVYLQMNSLKPEDTAVYYCAARYWQSYRSQVTHSSTLDYWGQGTQVTVSS | low polyreactivity

Row | Sequence | polyreactivity (PSR sort gate)
22 | QVQLVESGGGLVQAGGSLRLSCAASGFIFDEYAMGWYRQAPGKERELVAAISWSGSRTYYADSVKGRFTISRDNAKNTVYLQMNSLKPQDTAVDYCAKVTAVGAGRRNYWGQGTQVTVSS | low polyreactivity
23 | QVQLVESGGGLVQAGGSLRLSCAASGFIFDEYTMGWYRQAPGKERELVAAITSSGGTDYADSVKGRFTISRDNAKNTVYLQMNSLKPEDTAVYYCNTEDYYRDYDYWGQGTQVTVSS | low polyreactivity
24 | QVQLVESGGGLVQAGGSLRLSCAASGFIFDFYTMGWYRQAPGKERELVAAITNAGSTYYADSVKGRFTISRDNAMNTFYLHMNSLKPEDTAVYYCAAYYRSRHHGYDSWGQGTQVTVSS | low polyreactivity
25 | QVQLVESGGGLVQAGGSLRLSCAASGFIFDGYAMGWYRQAPGKERELVAAISSVGSTYYADSVKGRFTISRDNAKNTVYLQMNSLKPEDTAVYYCARGLEERYDYWGQGTQVTVSS | low polyreactivity
26 | QVQLVESGGGLVQAGGSLRLSCAASGFIFDNNAMGWYRQAPGKERELVATITSGGRTNYADSVKVRFTISRDNAKNTVYLQMNSLKPEDTAVYYCAAGYYLGSRRKTRDYWGQGTQVTVSS | low polyreactivity
27 | QVQLVESGGGLVQAGGSLRLSCAASGFIFDPNAMGWYRQAPGRERELVAAISSSGGRTYYADSVKGRFTISRDNAKNTVYLQMNSLKPEDTAVYYCATDTSVQGQEYDYWGQGTQVTVSS | low polyreactivity
28 | QVQLVESGGGLVQAGGSLRLSCAASGFIFDPYAMGWYRQAPGKERELVAAISRGGSTYYADSVKGRFTISRDNAKNIVYLQMNSLKPEDTAVYYCAAVFKFTREYSTGIRYYYWGQGTQVTVSS | high polyreactivity
29 | QVQLVESGGGLVQAGGSLRLSCAASGFIFDQNAMGWYRQAPGKERELVAAITRSGGCTYYADSVKGRFTISRDNAKNTVYLQMYSLNPEDTAVYYCAADLSYRGATRGDYYWGPGTQVTVSS | low polyreactivity
30 | QVQLVESGGGLVQAGGSLRLSCAASGFIFDQYAMGWYRQAPGKERELVAAITTGGDTNYADSVKGRFTISRDNAKNTVYLQMISLKPDDSAVYYCAAKKWLTSGAFDRVFIEFDYWGQGTQVTVSS | low polyreactivity
31 | QVQLVESGGGLVQAGGSLRLSCAASGFIFDRYAMGWYRQAPGKERELVAAITGSGGSTYYGDSVKGRFTISRDNAKNTVYLQMNSLKPEDTAVYYCNTGGRSGSPGYDYWGQGTQVTVSS | high polyreactivity
32 | QVQLVESGGGLVQAGGSLRLSCAASGFIFDSYAMGWYRQAPGKERELVAAISDGSSTYADSVKGRFTISRDNAKNTVYLQMNSLKPEDTAVYYCAAGVSTWWSTYDYWGQGTQVTVSS | high polyreactivity
33 | QVQLVESGGGLVQAGGSLRLSCAASGFIFDTYAMGWYRQAPGKERELVAAISWTGTDTYYADSVKGRFTISRDNAKNTVYLQMNSLKPEDTAVYYCAARSRYKYSPSGDYWGQGTQVTVSS | high polyreactivity
34 | QVQLVESGGGLVQAGGSLRLSCAASGFIFDVYAMGWYRQAPGKERELVAAISVSSTNYADSVKGRFTISRDNAKNTVYLQMNSLKPEDTAVYYCAADTYTYFLASYLYGQYDYWGQGTQVTVSS | low polyreactivity
35 | QVQLVESGGGLVQAGGSLRLSCAASGFIFDVYAMGWYRQAPGKERELVAAITSGDGTNYADSVKGRFTISRDNAKNTVYLQMNSLKPEDTAVYYCAADYGVTYRGIIFSYWGQGTQVTVSS | low polyreactivity
36 | QVQLVESGGGLVQAGGSLRLSCAASGFIFDVYAMGWYRQAPGTERELVAAITSGDGTNYADSVKGRFTISRDNAKNTVYLQMNSLKPEETAVYYCAADDGVTYRGIIFSYWGQGTQVTVSS | low polyreactivity
37 | QVQLVESGGGLVQAGGSLRLSCAASGFIFDWYAMGSYSQAPGKEREFVAAINWSGGSTYYADSVKGRFTISRDNAKNTVYLQMNSLKPEDTAVYYCAAYRPYSSSEGVYWGQGTQVTVSS | high polyreactivity
38 | QVQLVESGGGLVQAGGSLRLSCAASGFIFDYNTMGWYRQEPGKERELVADISGGGGRTYYADSVKGRFTISRDNAKNTVYLQMNSLKPEDTAVYYCAALGYYHHAWWISYDYWGQGTQVTVSS | low polyreactivity
39 | QVQLVESGGGLVQAGGSLRLSCAASGFIFDYYAMGWYRQAPGKEREFVAAITWDGGSTYYADSVKGRFTISRDNAKNTVYLQMNSLKPEDTAVYYRAAETWGEYGYWGQGTQVTVSS | low polyreactivity
40 | QVQLVESGGGLVQAGGSLRLSCAASGFIFDYYAMGWYRQAPGKERELVAAITSRSGSTYYADSVKGRFTISRDNAKNTVYLQMNSLKPEDTAVYYCAARRARRDPVGYVYAKYGYWGQGTQVTVSS | high polyreactivity
41 | QVQLVESGGGLVQAGGSLRLSCAASGFIFEGYAMGWYRQAPGKERELVATISRSGGRTNYADSVKGRFTISRDNAKNTVYLQMNSLKPEDTAVYYCAAAYLRRVAYDYWGQGTQVTVSS | high polyreactivity
